# Measurements as given in the supplement of paper PMC9112550, “Optimization of the antimicrobial peptide Bac7 by deep mutational scanning” (BMC Biology, 2022).
# Test system: Escherichia coli TOP10
# Experiment: shrunken log2 fold change of peptide-encoding DNA abundance (4.5 h post-induction vs induction); higher = less antimicrobial activity (less host growth inhibition)
# Conditions: time post-induction: 4.5 h; library: site-saturation at positions 5, 18, 19, 20
# 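Also: peptides expressed intracellularly from a pBAD plasmid library in pooled LB shake-flask culture, induced with 0.3% L-arabinose, DNA abundance read by NGS, three biological replicates, DESeq2 with apeglm shrinkage.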
row,Sequence,shrunken log2 fold change
1,RRIRRRPPRLPRPRPRPKIMPRP,-0.0825
2,RRIRQRPPRLPRPRPRPWKLPRP,-0.09
3,RRIRGRPPRLPRPRPRPAPGPRP,1.12
4,RRIRWRPPRLPRPRPRPHQPPRP,0.145
5,RRIRERPPRLPRPRPRPTTAPRP,0.0732
6,RRIRKRPPRLPRPRPRPCMWPRP,-0.189
7,RRIRSRPPRLPRPRPRPMFRPRP,-0.338
8,RRIRARPPRLPRPRPRPHAPPRP,0.54
9,RRIRMRPPRLPRPRPRPRMMPRP,0.476
10,RRIRVRPPRLPRPRPRPKMKPRP,0.839
11,RRIRHRPPRLPRPRPRPPNVPRP,-0.0106
12,RRIRMRPPRLPRPRPRPDHWPRP,0.617
13,RRIRGRPPRLPRPRPRPVQHPRP,0.542
14,RRIRLRPPRLPRPRPRPHKEPRP,0.0165
15,RRIRFRPPRLPRPRPRPDYLPRP,-0.159
16,RRIRPRPPRLPRPRPRPVRYPRP,0.346
17,RRIRYRPPRLPRPRPRPGLCPRP,-0.0365
18,RRIRVRPPRLPRPRPRPNLGPRP,-0.185
19,RRIRKRPPRLPRPRPRPWNRPRP,-0.078
20,RRIRSRPPRLPRPRPRPHVGPRP,-0.0134
21,RRIRKRPPRLPRPRPRPIIYPRP,0.0162
22,RRIRKRPPRLPRPRPRPQHRPRP,0.148
23,RRIRLRPPRLPRPRPRPIVFPRP,-0.0377
24,RRIRQRPPRLPRPRPRPIGGPRP,-0.0328
25,RRIRFRPPRLPRPRPRPTRYPRP,0.172

row,Sequence,shrunken log2 fold change
1,RRIRLRPPRLPRPRPRPRGNPRP,0.0735
2,RRIRSRPPRLPRPRPRPSHNPRP,-0.784
3,RRIRERPPRLPRPRPRPLINPRP,-0.512
4,RRIRSRPPRLPRPRPRPTWAPRP,0.518
5,RRIRKRPPRLPRPRPRPTFMPRP,0.189
6,RRIRDRPPRLPRPRPRPEGWPRP,1.78
7,RRIRLRPPRLPRPRPRPEKWPRP,-0.0497
8,RRIRKRPPRLPRPRPRPNSCPRP,0.188
9,RRIRQRPPRLPRPRPRPDMWPRP,0.0275
10,RRIRIRPPRLPRPRPRPLQQPRP,-0.293
11,RRIRDRPPRLPRPRPRPQQQPRP,-0.114
12,RRIRQRPPRLPRPRPRPDLPPRP,-0.134
13,RRIRYRPPRLPRPRPRPLYLPRP,-0.992
14,RRIRHRPPRLPRPRPRPGINPRP,-0.422
15,RRIRRRPPRLPRPRPRPKQNPRP,0.631
16,RRIRFRPPRLPRPRPRPICNPRP,-0.424
17,RRIRDRPPRLPRPRPRPSPSPRP,-0.018
18,RRIRERPPRLPRPRPRPVICPRP,-0.72
19,RRIRVRPPRLPRPRPRPIAYPRP,-0.184
20,RRIRIRPPRLPRPRPRPFSIPRP,-0.643
21,RRIRQRPPRLPRPRPRPSGYPRP,-0.0295
22,RRIRRRPPRLPRPRPRPKFRPRP,-0.0588
23,RRIRFRPPRLPRPRPRPACQPRP,-0.0497
24,RRIRLRPPRLPRPRPRPLETPRP,-0.0757
25,RRIRTRPPRLPRPRPRPWLKPRP,0.18

row,Sequence,shrunken log2 fold change
1,RRIRLRPPRLPRPRPRPAVLPRP,-0.0831
2,RRIRDRPPRLPRPRPRPQQDPRP,0.0798
3,RRIRKRPPRLPRPRPRPQPGPRP,0.406
4,RRIRERPPRLPRPRPRPHLIPRP,-0.207
5,RRIRYRPPRLPRPRPRPYAVPRP,-0.85
6,RRIRMRPPRLPRPRPRPKEMPRP,0.31
7,RRIRTRPPRLPRPRPRPWRGPRP,0.123
8,RRIRWRPPRLPRPRPRPGVWPRP,0.519
9,RRIRSRPPRLPRPRPRPLKDPRP,-0.484
10,RRIRKRPPRLPRPRPRPATAPRP,0.18
11,RRIRERPPRLPRPRPRPRPRPRP,0.723
12,RRIRCRPPRLPRPRPRPSNIPRP,-0.319
13,RRIRSRPPRLPRPRPRPLYYPRP,-0.547
14,RRIRYRPPRLPRPRPRPEYDPRP,-0.104
15,RRIRKRPPRLPRPRPRPSNGPRP,-0.00174
16,RRIRYRPPRLPRPRPRPHEDPRP,-0.172
17,RRIRTRPPRLPRPRPRPSWLPRP,0.11
18,RRIRYRPPRLPRPRPRPRPQPRP,0.438
19,RRIRWRPPRLPRPRPRPPVNPRP,0.13
20,RRIRVRPPRLPRPRPRPCHSPRP,-0.225
21,RRIRARPPRLPRPRPRPASTPRP,0.318
22,RRIRGRPPRLPRPRPRPKKRPRP,0.817
23,RRIRWRPPRLPRPRPRPMSCPRP,-0.256
24,RRIRARPPRLPRPRPRPMFTPRP,-0.0981
25,RRIRNRPPRLPRPRPRPHHAPRP,-0.0601

row,Sequence,shrunken log2 fold change
1,RRIRLRPPRLPRPRPRPCNPPRP,-0.000687
2,RRIRWRPPRLPRPRPRPFWQPRP,-0.00499
3,RRIRKRPPRLPRPRPRPDQRPRP,0.458
4,RRIRRRPPRLPRPRPRPTATPRP,1.56
5,RRIRCRPPRLPRPRPRPQHWPRP,0.102
6,RRIRWRPPRLPRPRPRPGGLPRP,0.403
7,RRIRQRPPRLPRPRPRPASGPRP,-0.00438
8,RRIRARPPRLPRPRPRPNEKPRP,-0.0878
9,RRIRWRPPRLPRPRPRPYQWPRP,-0.0641
10,RRIRARPPRLPRPRPRPKFVPRP,0.301
11,RRIRSRPPRLPRPRPRPWKPPRP,-0.0117
12,RRIRCRPPRLPRPRPRPPLTPRP,0.578
13,RRIRQRPPRLPRPRPRPFMGPRP,-0.0627
14,RRIRLRPPRLPRPRPRPMFVPRP,-0.354
15,RRIRSRPPRLPRPRPRPEAIPRP,0.748
16,RRIRRRPPRLPRPRPRPTYCPRP,-0.0567
17,RRIRQRPPRLPRPRPRPNGQPRP,-0.262
18,RRIRSRPPRLPRPRPRPWDTPRP,-0.0299
19,RRIRPRPPRLPRPRPRPSHNPRP,-0.645
20,RRIRGRPPRLPRPRPRPENFPRP,0.0598
21,RRIRCRPPRLPRPRPRPRDFPRP,0.0317
22,RRIRWRPPRLPRPRPRPHPAPRP,0.35
23,RRIRDRPPRLPRPRPRPSTDPRP,0.0145
24,RRIRNRPPRLPRPRPRPMLHPRP,-0.263
25,RRIRHRPPRLPRPRPRPMDCPRP,-0.0499

row,Sequence,shrunken log2 fold change
1,RRIRIRPPRLPRPRPRPGHDPRP,0.144
2,RRIRYRPPRLPRPRPRPVAVPRP,3.17
3,RRIRHRPPRLPRPRPRPTLWPRP,0.246
4,RRIRARPPRLPRPRPRPDFVPRP,0.205
5,RRIRARPPRLPRPRPRPFGQPRP,-0.0155
6,RRIRRRPPRLPRPRPRPYSRPRP,-0.391
7,RRIRYRPPRLPRPRPRPQLVPRP,-0.045
8,RRIRQRPPRLPRPRPRPVWAPRP,-0.468
9,RRIRTRPPRLPRPRPRPWLAPRP,0.216
10,RRIRGRPPRLPRPRPRPRWKPRP,0.0802
11,RRIRRRPPRLPRPRPRPCTEPRP,0.106
12,RRIRARPPRLPRPRPRPMYHPRP,-0.215
13,RRIRYRPPRLPRPRPRPFQCPRP,-0.157
14,RRIRGRPPRLPRPRPRPRVMPRP,0.473
15,RRIRQRPPRLPRPRPRPCTFPRP,-0.121
16,RRIRHRPPRLPRPRPRPFDKPRP,-0.118
17,RRIRRRPPRLPRPRPRPTEAPRP,0.0804
18,RRIRGRPPRLPRPRPRPPQTPRP,1.31
19,RRIRGRPPRLPRPRPRPCLNPRP,0.165
20,RRIRGRPPRLPRPRPRPYATPRP,1.81
21,RRIRQRPPRLPRPRPRPIMNPRP,-1.23
22,RRIRKRPPRLPRPRPRPHSCPRP,0.0828
23,RRIRCRPPRLPRPRPRPYWFPRP,-0.74
24,RRIRCRPPRLPRPRPRPPDFPRP,-0.00542
25,RRIRMRPPRLPRPRPRPDERPRP,1.11

row,Sequence,shrunken log2 fold change
1,RRIRERPPRLPRPRPRPVEMPRP,0.139
2,RRIRGRPPRLPRPRPRPVEAPRP,0.997
3,RRIRNRPPRLPRPRPRPYENPRP,-0.0659
4,RRIRFRPPRLPRPRPRPIGHPRP,-0.115
5,RRIRLRPPRLPRPRPRPLTAPRP,-0.0325
6,RRIRVRPPRLPRPRPRPPMLPRP,-0.037
7,RRIRNRPPRLPRPRPRPNTCPRP,-0.195
8,RRIRVRPPRLPRPRPRPIKFPRP,0.0613
9,RRIRLRPPRLPRPRPRPYYNPRP,-1.18
10,RRIRARPPRLPRPRPRPDHRPRP,0.0154
11,RRIRTRPPRLPRPRPRPWRLPRP,-0.127
12,RRIRRRPPRLPRPRPRPRWNPRP,0.326
13,RRIRIRPPRLPRPRPRPKTFPRP,-0.0578
14,RRIRMRPPRLPRPRPRPNHMPRP,-0.01
15,RRIRGRPPRLPRPRPRPKKAPRP,-0.0191
16,RRIRYRPPRLPRPRPRPIGQPRP,0.013
17,RRIRLRPPRLPRPRPRPDVPPRP,-0.284
18,RRIRCRPPRLPRPRPRPEEVPRP,0.362
19,RRIRWRPPRLPRPRPRPCVTPRP,0.024
20,RRIRLRPPRLPRPRPRPVMCPRP,0.142
21,RRIRGRPPRLPRPRPRPCLEPRP,0.546
22,RRIRDRPPRLPRPRPRPSSMPRP,-0.292
23,RRIRARPPRLPRPRPRPIHDPRP,-0.0961
24,RRIRYRPPRLPRPRPRPLGDPRP,-0.079
25,RRIRGRPPRLPRPRPRPCGHPRP,0.666
